Measured values as given in patent US20060078537A1.

Biological target: human CCR5 (human) (UniProt P51681)
Assay: cell-based or functional assay

Chain of human CCR5 (human) (P51681 whole entry): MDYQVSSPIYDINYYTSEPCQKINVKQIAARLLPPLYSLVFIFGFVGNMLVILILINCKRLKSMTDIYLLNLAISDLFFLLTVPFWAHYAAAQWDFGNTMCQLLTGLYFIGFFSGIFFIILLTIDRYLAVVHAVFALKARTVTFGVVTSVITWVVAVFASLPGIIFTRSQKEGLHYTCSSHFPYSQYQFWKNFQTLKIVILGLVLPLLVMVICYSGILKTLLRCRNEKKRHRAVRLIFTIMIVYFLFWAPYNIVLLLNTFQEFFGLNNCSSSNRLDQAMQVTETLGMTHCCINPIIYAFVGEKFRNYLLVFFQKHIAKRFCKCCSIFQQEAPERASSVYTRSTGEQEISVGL

B1: MC-1 anti-CCR5 monoclonal antibody (antibody, from another filing, V domains shown)
VH: QVQLQQPGAGRVRPGASVKLSCKASGYSFTSYWMNWVKQRPGQGLEWIGMIHPSDSETRLNQKFNDRATLTVDKYSSTAYIQLSSPTSEDSAVYYCARGEYYYGIFDYWGQGTTVTVSS
VL: DIQLTQSPASLSASVGETVTITCRASENIYSYLAWYQQKQGKSPQLLVYNAKTLTEGVPSRFSGSGSGTQFSLKINSLQPEDFGNYFCQHHYDTPRTFGGGTKLEIK
decrease of cell surface CCR5 on CHO cells expressing CCR5 (FACS, 30 minutes at 37° C.) at 5 µg/ml MC-1: 50%
